We go through two substances from PMC5368172.

Experiment [1] addresses SCM on the surface of S. canis strain G361 (Streptococcus canis (endogenous in strain G361)). As to the kind of experiment: radioligand binding; iodinated IgG or iodinated plasminogen incubated with whole S. canis bacteria, gamma-counting, percent bound; inhibition with 1.0 μM non-labeled IgG or plasminogen.
Experiment [2] deals with HRP-conjugated human IgG (human). As to the kind of experiment: ELISA; competitive: wells coated with 5 μg full length SCM; HRP-conjugated human IgG (1:200) pre-incubated 15 min with 10 μg SCM, FOG or KO173225, then added for 2 h. On the technique in general: ELISA stands for enzyme-linked immunosorbent assay.

As to human plasminogen (natural protein), in experiment [1], the percent bound is 37.1% and the percent bound with excess non-radiolabeled plasminogen was 23.3%.
The substance “recombinant SCM, the M protein of Streptococcus canis (natural protein)” yielded an IgG binding to immobilized SCM left after pre-incubation of IgG with 10 μg SCM, percent in experiment [2] of 20%.
